Here are results for one molecule from patent publication US20090202520A1.

In this assay the target is serum amyloid P (SAP) (human), P02743. The assay can be described thus: SPR (Biacore X100), SAP on CM5 chip, soluble receptor flowed, single cycle kinetics, KD = Kd/Ka. The note with it: remark: other sources report otherwise.
Sequence of serum amyloid P (SAP) (human), P02743 (P02743 20-223): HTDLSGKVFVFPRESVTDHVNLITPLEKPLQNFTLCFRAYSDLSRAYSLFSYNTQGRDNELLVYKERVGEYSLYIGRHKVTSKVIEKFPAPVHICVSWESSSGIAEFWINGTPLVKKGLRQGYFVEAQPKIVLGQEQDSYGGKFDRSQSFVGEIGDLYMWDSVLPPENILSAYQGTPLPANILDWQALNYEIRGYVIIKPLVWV

B1: soluble recombinant FcγRIIIB (sFcγRIIIB), O75015 17-200 (receptor, UniProt O75015 17-200, looked up, not shown: small tags and cut ends)
chain: GMRTEDLPKAVVFLEPQWYSVLEKDSVTLKCQGAYSPEDNSTQWFHNENLISSQASSYFIDAATVNDSGEYRCQTNLSTLSDPVQLEVHIGWLLLQAPRWVFKEEDPIHLRCHSWKNTALHKVTYLQNGKDRKYFHHNSDFHIPKATLKDSGSYFCRGLVGSKNVSSETVNITITQGLAVSTIS
B1: the dissociation constant Kd turned out to be 400 pM.
